# From PMC2871135, “Engineering Cofactor Preference of Ketone Reducing Biocatalysts: A Mutagenesis Study on a γ-Diketone Reductase from the Yeast Saccharomyces cerevisiae Serving as an Example” (International Journal of Molecular Sciences, 2010)
# Substitutions are numbered along the chain they refer to. Names and notes keep the numbering of the source.
# B1: Gre2p (Saccharomyces cerevisiae S288C) (protein)
# chain: MSVFVSGANGFIAQHIVDLLLKEDYKVIGSARSQEKAENLTEAFGNNPKFSMEVVPDISKLDAFDHVFQKHGKDIKIVLHTASPFCFDITDSERDLLIPAVNGVKGILHSIKKYAADSVERVVLTSSYAAVFDMAKENDKSLTFNEESWNPATWESCQSDPVNAYCGSKKFAEKAAWEFLEENRDSVKFELTAVNPVYVFGPQMFDKDVKKHLNTSCELVNSLMHLSPEDKIPELFGGYIDVRDVAKAHLVAFQKRETIGQRLIVSEARFTMQDVLDILNEDFPVLKGNIPVGKPGSGATHNTLGATLDNKKSKKLLGFKFRNLKETIDDTASQILKFEGRI
# notes: GRE2 subcloned from p423-GPD-YOL151w into pRSET B, expressed in E. coli BL21(DE3) pLysS
# B2: Gre2p (Saccharomyces cerevisiae S288C; N9E) (protein)
# chain: B1 chain with N9E
# notes: as for B1
# What was measured:
# [1] = substrate: NC(=O)C1=CN([C@@H]2O[C@H](COP(=O)(O)OP(=O)(O)OC[C@H]3O[C@@H](n4cnc5c(N)ncnc54)[C@H](O)[C@@H]3O)[C@@H](O)[C@H]2O)C=CC1; assay: cells, lysate or membranes; assay type: biochemical, Saccharomyces cerevisiae; conditions: 10 mM 2,5-hexanedione as co-substrate, sodium phosphate pH 7.0, 30 °C, cofactor varied 0.1-4 mM, enzyme enriched from E. coli extract, not homogeneous
# [2] = substrate: NC(=O)C1=CN([C@@H]2O[C@H](COP(=O)(O)OP(=O)(O)OC[C@H]3O[C@@H](n4cnc5c(N)ncnc54)[C@H](OP(=O)(O)O)[C@@H]3O)[C@@H](O)[C@H]2O)C=CC1; assay: cells, lysate or membranes; assay type: biochemical, Saccharomyces cerevisiae; conditions: 10 mM 2,5-hexanedione as co-substrate, sodium phosphate pH 7.0, 30 °C, cofactor varied 0.1-4 mM, enzyme enriched from E. coli extract, not homogeneous
Protein,Km [1] [µM],Vmax [1] [µmol/min/mg],Km [2] [µM],Vmax [2] [µmol/min/mg]
B1,1450,0.081,38,0.288
B2,960,0.147,1520,0.272
